Publication PMC12052454
Primed or numbered codes have the meaning given here. The star is where a group is joined. 5FAM = O=C1OC2(c3ccc(O)cc3Oc3cc(O)ccc32)c2ccc(C(=O)*)cc21; Dabcyl′ = CN(C)c1ccc(/N=N/c2ccc(C(=O)*)cc2)cc1

Molecular target: ADAM9-P750L (rs144750648) (human) (UniProt Q13443)
Set-up: unit not given beside the values

Sequence of UniProt Q13443 (Q13443 29-819 P750L): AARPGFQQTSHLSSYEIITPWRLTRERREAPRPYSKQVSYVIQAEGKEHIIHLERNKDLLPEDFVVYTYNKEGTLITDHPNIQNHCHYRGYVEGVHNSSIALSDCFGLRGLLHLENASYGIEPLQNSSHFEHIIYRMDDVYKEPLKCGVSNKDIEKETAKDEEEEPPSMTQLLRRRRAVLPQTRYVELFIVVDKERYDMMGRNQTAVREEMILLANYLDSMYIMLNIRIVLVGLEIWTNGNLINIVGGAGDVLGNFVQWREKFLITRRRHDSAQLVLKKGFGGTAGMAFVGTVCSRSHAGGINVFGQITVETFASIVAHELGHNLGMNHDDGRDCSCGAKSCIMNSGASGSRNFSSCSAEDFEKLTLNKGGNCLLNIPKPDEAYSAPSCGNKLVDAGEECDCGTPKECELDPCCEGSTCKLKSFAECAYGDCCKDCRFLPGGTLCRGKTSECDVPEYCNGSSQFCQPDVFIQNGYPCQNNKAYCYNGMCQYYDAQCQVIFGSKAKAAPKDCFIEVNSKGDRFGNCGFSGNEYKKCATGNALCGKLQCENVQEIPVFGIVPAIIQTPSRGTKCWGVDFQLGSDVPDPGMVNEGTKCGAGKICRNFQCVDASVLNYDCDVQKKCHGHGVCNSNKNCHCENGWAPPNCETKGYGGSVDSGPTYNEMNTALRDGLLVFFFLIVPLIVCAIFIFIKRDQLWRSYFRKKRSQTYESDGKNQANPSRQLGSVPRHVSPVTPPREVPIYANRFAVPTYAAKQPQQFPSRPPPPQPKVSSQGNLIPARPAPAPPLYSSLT

B1: ADAM9 fluorogenic substrate PEPDAB010 (Dabcyl-…[5-FAM]-NH2) (peptide)
peptide: {Dabcyl′}-SPLAQAVRSSK(5FAM)-NH2
SMILES: CC(C)C[C@H](NC(=O)[C@@H]1CCCN1C(=O)[C@H](CO)NC(=O)c1ccc(/N=N/c2ccc(N(C)C)cc2)cc1)C(=O)N[C@@H](C)C(=O)N[C@@H](CCC(N)=O)C(=O)N[C@@H](C)C(=O)N[C@H](C(=O)N[C@@H](CCCNC(=N)N)C(=O)N[C@@H](CO)C(=O)N[C@@H](CO)C(=O)N[C@@H](CCCCNC(=O)c1ccc2c(c1)C(=O)OC21c2ccc(O)cc2Oc2cc(O)ccc21)C(N)=O)C(C)C
A Km of cleavage of the fluorogenic substrate PEPDAB010 (Lineweaver-Burk plot, lysates of transfected HEK293 cells), reduction compared to ADAM9 WT (% reduction of Km compared to ADAM9 WT) of 41.9 was found for B1 in this work.
